Assay results published in patent US5543498A, “Peptides to overcome inhibition of nerve growth” (The General Hospital Corporation, priority 1995, dated 1996).
“Also recorded” adds a separate entry of the source. No end group written: not given here.

Columns and labels:
[1] = target: Go (Homo sapiens, UniProt P09471); assay: GTPγ S binding to Go (nitrocellulose filtration assay); format: biochemical; conditions: for effect on GTPγ S binding to Go, dose response: oxidized (performic acid) vs control peptide, same concentration range; for effect of mutant decapeptides on GTPγ S binding to Go: peptide 250 μM, binding without peptides = 100%
Protocol: The GAP-43 1-10 peptide was oxidized using performic acid according to the procedures of A. Roher et al., Proc. Natl. Acad. Sci. USA 83:2662 (1986). Briefly, 10 mM peptide was incubated with formic acid solution containing 3% H2 O2 at 25° C. for one hour. The activation state of Go was determined in a nitrocellulose filtration assay as described by S. M. Strittmatter et al., Proc. Natl. Acad. Sci. USA 90:5327 (1993).
Both cysteine residues at positions 3 and 4 in the native GAP-43 1-10 peptide were replaced with methionine, tyrosine, aspartate, glutamate, lysine, arginine, serine, and tryptophan. These mutant peptides were tested for their ability to influence GTPγ S binding to Go.

[2] = tested on: Chick dorsal root ganglion (DRG) neurons; format: cell-based
Protocol: Chick DRGs from embryonic day 7 (E7) were explanted onto laminin-coated chamber slides in F12 medium with 10 ng/ml nerve growth factor and 10% fetal bovine serum. After 20 hours, peptide solutions or phosphate-buffered saline (PBS) in 1 mM DTT was added to the explants (225 μl) and the mixture incubated at 27° C. for one hour. BME, prepared following the procedure of J. A. Raper and J. P. Kapfhammer, Neuron 2:21 (1990), was added to the explants and incubated for 30 minutes. For each explant, all growth cones were scored as collapsed or fan-shaped (M. Igarashi et al., Science 259:77 (1993)).
In another series of experiments the GAP-43 1-10 peptide was added into the culture medium at 10^-8 M one hour prior to the addition of BME. After 30 minutes incubation with BME, the explant was fixed in glutaraldehyde and its growth cones were scored.
After exposing the PTX treated neurons to BME and the GAP-43 1-10, the amount of growth cone collapse was measured.
The procedure described in Example 2 was followed with the exception that one hour prior to the addition of BME (0.15 mg protein/ml) to the DRG culture medium, either the methionine or tyrosine mutant peptide was introduced at a concentration of 10^-4 M.

Chain of Go (P09471 whole entry): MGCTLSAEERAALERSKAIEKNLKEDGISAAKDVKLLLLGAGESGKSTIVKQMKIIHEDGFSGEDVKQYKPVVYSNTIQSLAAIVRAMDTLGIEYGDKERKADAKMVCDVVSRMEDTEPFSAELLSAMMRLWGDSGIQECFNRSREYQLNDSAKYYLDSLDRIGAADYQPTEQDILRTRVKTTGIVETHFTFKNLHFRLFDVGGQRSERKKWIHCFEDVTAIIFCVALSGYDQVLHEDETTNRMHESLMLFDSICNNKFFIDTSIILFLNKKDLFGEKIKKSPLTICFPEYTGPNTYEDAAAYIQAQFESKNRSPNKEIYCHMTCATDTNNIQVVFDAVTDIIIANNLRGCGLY

oxidized GAP-43 1-10 peptide: GAP-43 1-10 peptide oxidized using performic acid (MLCCMRRTKQ; also: oxidized using performic acid)
effect on GTPγ S binding to Go, dose response ([1]; listed as Oxidation of the GAP-43 1-10 N terminus): dose-dependent inhibition | effect on GTPγ S binding to Go, dose response ([1]; listed as Oxidation of the GAP-43 1-10 N-terminus): dose-dependent inhibition | effect on GTPγ S binding to Go, dose response ([1]; listed as oxidation of the peptide by performic acid): inhibitory for Go

[3Y, 4Y]GAP43 (1-10) (MLYYMRRTKQ) [peptide-Y, GAP-43 1-10 peptide with both cysteines at positions 3 and 4 replaced with tyrosine]
effect of mutant decapeptides on GTPγ S binding to Go [1]: attenuate GTPγ S binding to Go; also recorded: antagonist of G protein stimulation | effect of mutant decapeptides on GTPγ S binding to Go ([1]; listed as tyrosine): inhibits GTPγ S binding to Go | shift of BME dose response: BME needed to cause 50% collapse ([2]; DRG, 10^-4 M peptide, relative to no peptide): about twice | inhibition of growth cone collapse induced by BME ([2]; DRG, BME 0.15 mg protein/ml, peptide 10^-4 M one hour before BME): approximately 30% | effect of the peptides by themselves on growth cones ([2]; doses used for the BME dose response (FIG. 3C)): do not have any evident effect by themselves

pertussis toxin [PTX, reference compound]
effect on growth cone collapse induced by BME ([2]; PTX 20 ng/ml, BME 0.075 mg/ml): do not inhibit the collapse induced by BME | effect on GAP-43 1-10 peptide potentiation of BME-induced growth cone collapse ([2]; PTX 20 ng/ml, BME 0.075 mg/ml plus 10^-8 M GAP-43 1-10 peptide, listed as pertussis toxin): blocks
